Test results from paper PMC9638876 (EMBO Reports, 2022).

Target: GST-tagged Gcn4 (transcription factor Gcn4) (S. cerevisiae, UniProt P03069 1-281)
Assay: pull-down

Chain of GST-tagged Gcn4 (transcription factor Gcn4) (P03069 whole entry): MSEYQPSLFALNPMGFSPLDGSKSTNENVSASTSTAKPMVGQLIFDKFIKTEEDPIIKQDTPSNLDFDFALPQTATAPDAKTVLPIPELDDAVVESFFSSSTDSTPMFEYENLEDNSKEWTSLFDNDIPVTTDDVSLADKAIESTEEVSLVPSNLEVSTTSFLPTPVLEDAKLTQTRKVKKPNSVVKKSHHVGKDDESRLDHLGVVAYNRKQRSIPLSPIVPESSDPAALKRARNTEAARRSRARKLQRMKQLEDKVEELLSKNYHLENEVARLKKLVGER

- binding result: binds
B1: His-tagged Rpb9 (RNA polymerase II subunit Rpb9) (natural protein, S. cerevisiae, UniProt P27999 1-122, looked up)
chain: MTTFRFCRDCNNMLYPREDKENNRLLFECRTCSYVEEAGSPLVYRHELITNIGETAGVVQDIGSDPTLPRSDRECPKCHSRENVFFQSQQRRKDTSMVLFFVCLSCSHIFTSDQKNKRTQFS
